The values below come from patent US20160177307.

The test system of this data set is T1, VEGF-121 (Homo sapiens), P15692-9.
T1 sequence: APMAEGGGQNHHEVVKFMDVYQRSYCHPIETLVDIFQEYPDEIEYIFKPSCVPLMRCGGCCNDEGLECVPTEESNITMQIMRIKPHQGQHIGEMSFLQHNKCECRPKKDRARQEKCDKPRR
In words: filter.

For orientation: Kd means the equilibrium constant for the complex coming apart. The sequence “AGCCGTTCAAGTGCTTGTAGGATTTAAATGGA [4867-31_94]” returned a dissociation constant (Kd) (P=Nap-dU, 2'-OMe G30) of 0.21 nM.
“AGCCGTTCAAGTGCTTGTAGGATTTAAATGGA [4867-31_95]” had a Kd (P=Nap-dU, 2'-OMe G31) of 0.19 nM.
Under “P=Nap-dU, 2'-OMe A32”, “AGCCGTTCAAGTGCTTGTAGGATTTAAATGGA [4867-31_96]” showed a Kd of 0.13 nM.
“AGCCGTTCAAGTGCTTTAGGATTTAAATGGA [4867-31_98]” showed a Kd (C3 spacer at 17, all P are NapdU, C3 at G17) of 0.1 nM.
Take “CCCCCATCAGCCGTTCAAGTGCTTGTAGGATTTAAATGGAATTGGAGGA [4867-15_27]”: the Kd (P=Nap-dU, C3 spacer at 4) stood at 0.4 nM.
The sequence “CCCTCATCAGCCGTTCAAGTGCTTGTAGGATTTAAATGGAATTGGAGGA [4867-15_28]” showed a Kd (P=Nap-dU, C3 spacer at 5) of 0.34 nM.
Sequence “CCCTCATCAGCCGTTCAAGTGCTTGTAGGATTTAAATGGAATTGGAGGA [4867-15_29]” displayed a Kd (P=Nap-dU, C3 spacer at 6) of 0.2 nM.
“CCCTCCACAGCCGTTCAAGTGCTTGTAGGATTTAAATGGAATTGGAGGA [4867-15_31]”: the equilibrium dissociation constant (Kd) (P=Nap-dU, C3 spacer at 8) is 0.095 nM.
Under “P=Nap-dU, C3 spacer at 9”, “CCCTCCATAGCCGTTCAAGTGCTTGTAGGATTTAAATGGAATTGGAGGA [4867-15_32]” came in with a Kd of 0.079 nM.
“CCCTCCATCACCGTTCAAGTGCTTGTAGGATTTAAATGGAATTGGAGGA [4867-15_34]” displayed a Kd (P=Nap-dU, C3 spacer at 11) of 0.14 nM.
As to “CCCTCCATCAGCCGTTAAGTGCTTGTAGGATTTAAATGGAATTGGAGGA [4867-15_40]”, the Kd (P=Nap-dU, C3 spacer at 17) came to 0.17 nM.
“CCCTCCATCAGCCGTTCAAGTCTTGTAGGATTTAAATGGAATTGGAGGA [4867-15_45]” yielded a dissociation constant Kd (P=Nap-dU, C3 spacer at 22) of 3.5 nM.
For “CCCTCCATCAGCCGTTCAAGTGCTTGAGGATTTAAATGGAATTGGAGGA [4867-15_50]”, the equilibrium dissociation constant (Kd) (P=Nap-dU, C3 spacer at 27) is 3.5 nM.
In turn, “CCCTCCATCAGCCGTTCAAGTGCTTGTAGATTTAAATGGAATTGGAGGA [4867-15_52]” registered a Kd (P=Nap-dU, C3 spacer at 29) of 0.2 nM.
Under “P=Nap-dU, C3 spacer at 30”, “CCCTCCATCAGCCGTTCAAGTGCTTGTAGATTTAAATGGAATTGGAGGA [4867-15_53]” gave a Kd of 23 nM.
The sequence “CCCTCCATCAGCCGTTCAAGTGCTTGTAGGATTTAAATGAATTGGAGGA [4867-15_62]” displayed an equilibrium dissociation constant (Kd) (P=Nap-dU, C3 spacer at 39) of 53 nM.
Consider “CCCTCCATCAGCCGTTCAAGTGCTTGTAGGATTTAAATGAATTGGAGGA [4867-15_63]”, for which, where the note is “P=Nap-dU, C3 spacer at 40”, the Kd stood at 15 nM.
“CCCTCCATCAGCCGTTCAAGTGCTTGTAGGATTTAAATGGAATGGAGGA [4867-15_66]” gave an equilibrium dissociation constant (Kd) (P=Nap-dU, C3 spacer at 43) of 0.11 nM.
As for “CCCTCCATCAGCCGTTCAAGTGCTTGTAGGATTTAAATGGAATGGAGGA [4867-15_67]”, the Kd (P=Nap-dU, C3 spacer at 44) was 0.15 nM.
“CCCTCCATCAGCCGTTCAAGTGCTTGTAGGATTTAAATGGAATTGAGGA [4867-15_68]” registered a Kd (P=Nap-dU, C3 spacer at 45) of 0.32 nM.
Take “CCCTCCATCAGCCGTTCAAGTGCTTGTAGGATTTAAATGGAATTGAGGA [4867-15_69]”: the equilibrium dissociation constant (Kd) (P=Nap-dU, C3 spacer at 46) is 0.77 nM.
Consider “CCCTCCATCAGCCGTTCAAGTGCTTGTAGGATTTAAATGGAATTGGAGA [4867-15_71]”, for which, under “P=Nap-dU, C3 spacer at 48”, the dissociation constant (Kd) amounted to 0.24 nM.
“CCCTCCATCAGCCGTTCAAGTGCTTGTAGGATTTAAATGGAATTGGAGA [4867-15_72]” registered a Kd (P=Nap-dU, C3 spacer at 49) of 0.19 nM.
Sequence “CCCTCCATCAGCCGTTCAAGTGCTTGTAGGATTTAAATGGAATTGGAGG [4867-15_73]” registered an equilibrium dissociation constant (Kd) (P=Nap-dU, C3 spacer at 50) of 0.17 nM.
As to “CCCTCCATCAGCCGTTCAAGTGCTTGTAGGATTTAAATGGAATTGGAGGA [4867-31_2 (4867-15_2, 50-mer)]”, for the setting “all P are NapdU, rest DNA, 50-mer parent”, the Kd came to 0.15 nM.
Take “CCCTCCATCAGCCGTTCAAGTGCTTGTAGGATTTAAATGGAATTGGGGA [4867-15_70]”: the Kd (P=Nap-dU, C3 spacer at 47) was determined as 0.68 nM.
On to “CCCTCCATCAGCCGTTCAAGTGCTTGTAGGATTTAAATGGATTGGAGGA [4867-15_64]”, for which the Kd (P=Nap-dU, C3 spacer at 41) stood at 0.22 nM.
The sequence “CCCTCCATCAGCCGTTCAAGTGCTTGTAGGATTTAAATGGATTGGAGGA [4867-15_65]” displayed a Kd (P=Nap-dU, C3 spacer at 42) of 0.13 nM.
For the setting “P=Nap-dU, C3 spacer at 28”, “CCCTCCATCAGCCGTTCAAGTGCTTGTGGATTTAAATGGAATTGGAGGA [4867-15_51]” had a dissociation constant (Kd) of 1.6 nM.
Take “CCCTCCATCAGCCGTTCAAGTGCTTTAGGATTTAAATGGAATTGGAGGA [4867-15-49]”: under “C3 spacer at 26 as stated in text numbering is nearby G (single V in SEQ:614), all P are NapdU, C3 spacer at G26 tolerated”, the Kd was 0.079 nM.
For the setting “P=Nap-dU, C3 spacer at 20”, “CCCTCCATCAGCCGTTCAATGCTTGTAGGATTTAAATGGAATTGGAGGA [4867-15_43]” returned a Kd of 9.2 nM.
The sequence “CCCTCCATCAGCCGTTCAGTGCTTGTAGGATTTAAATGGAATTGGAGGA [4867-15_41]” displayed a Kd (P=Nap-dU, C3 spacer at 18) of 13 nM.
“CCCTCCATCAGCCGTTCAGTGCTTGTAGGATTTAAATGGAATTGGAGGA [4867-15_42]” displayed a Kd (P=Nap-dU, C3 spacer at 19) of 31 nM.
On to “CCCTCCATCAGCCTTCAAGTGCTTGTAGGATTTAAATGGAATTGGAGGA [4867-15_37]”, for which the dissociation constant (Kd) (P=Nap-dU, C3 spacer at 14) worked out at 30 nM.
Turning to “CCCTCCATCAGCGTTCAAGTGCTTGTAGGATTTAAATGGAATTGGAGGA [4867-15_35]”, the Kd (P=Nap-dU, C3 spacer at 12) is 3.4 nM.
For the sequence “CCCTCCATCGCCGTTCAAGTGCTTGTAGGATTTAAATGGAATTGGAGGA [4867-15_33]”, the Kd (P=Nap-dU, C3 spacer at 10) came out at 0.12 nM.
Where the note is “P=Nap-dU, C3 spacer at 7”, “CCCTCCTCAGCCGTTCAAGTGCTTGTAGGATTTAAATGGAATTGGAGGA [4867-15_30]” showed a dissociation constant Kd of 0.11 nM.
In the case of “CCGTTAAAGTGCTTGTAGGATTTAAATGGA [4867-31_145]”, where the note is “P=Nap-dU”, the dissociation constant Kd worked out at 3.08 nM.
Same read-out and setting: the figure for “CCGTTCAAGTGCTTATAGGATTTAAATGGA [4867-31_148]” is 0.53 nM; for “CCGTTCAAGTGCTTCTAGGATTTAAATGGA [4867-31_149]” it is 0.27 nM.
For “CCGTTCAAGTGCTTGTAAGATTTAAATGGA [4867-31_151]”, the dissociation constant Kd (P=Nap-dU) amounted to 0.16 nM.
The same measure, in the same setting: the figure for “CCGTTCAAGTGCTTGTACGATTTAAATGGA [4867-31_152]” is 0.32 nM.
For the sequence “CCGTTCAAGTGCTTGTAGGATTTAAATGG [4867-31_143]”, the Kd (NapdU at 4,5,10,13,14,16,21,22,23,27, rest DNA, SB18T, 37 C, Table 13 gives 0.14 nM) amounted to 0.17 nM.
“CCGTTCAAGTGCTTGTAGGATTTAAATGG [4867-31_154]” came in with a Kd (NapdU at P, 2'-OMe 4) of 5.9 nM.
For the setting “NapdU at P, 2'-OMe 5”, “CCGTTCAAGTGCTTGTAGGATTTAAATGG [4867-31_155]” had a Kd of 3.3 nM.
“CCGTTCAAGTGCTTGTAGGATTTAAATGG [4867-31_156]” displayed a Kd (NapdU at P, 2'-OMe 10) of 0.68 nM.
The sequence “CCGTTCAAGTGCTTGTAGGATTTAAATGG [4867-31_157]” had a Kd (NapdU at P, 2'-OMe 13) of 1.5 nM.
In turn, “CCGTTCAAGTGCTTGTAGGATTTAAATGG [4867-31_158]” had a dissociation constant (Kd) (NapdU at P, 2'-OMe 14) of 1.7 nM.
For “CCGTTCAAGTGCTTGTAGGATTTAAATGG [4867-31_159]”, the Kd (NapdU at P, 2'-OMe 16) worked out at 0.56 nM.
As to “CCGTTCAAGTGCTTGTAGGATTTAAATGG [4867-31_160]”, the Kd (NapdU at P, 2'-OMe 21) amounted to 1.5 nM.
As to “CCGTTCAAGTGCTTGTAGGATTTAAATGG [4867-31_161]”, the Kd (2'-OMe-NapU at 22, other P are NapdU, target taken as VEGF-121) came to 0.064 nM.
As to “CCGTTCAAGTGCTTGTAGGATTTAAATGG [4867-31_162]”, the Kd (2'-OMe-NapU at 23, other P are NapdU, target taken as VEGF-121) was determined as 8.9 nM.
Where the note is “NapdU at P, 2'-OMe 27”, “CCGTTCAAGTGCTTGTAGGATTTAAATGG [4867-31_163]” showed a Kd of 0.26 nM.
For the setting “NapdU at P, 2'-OMe 9,15,17,18,28,29 as printed”, “CCGTTCAAGTGCTTGTAGGATTTAAATGG [4867-31_191]” gave an equilibrium dissociation constant (Kd) of 0.1 nM.
For the sequence “CCGTTCAAGTGCTTGTAGGATTTAAATGG [4867-31_409]”, the dissociation constant Kd (as 4867-31_192, PS 3' of 1, 3' inverted dT) was found to be 0.011 nM.
For “CCGTTCAAGTGCTTGTAGGATTTAAATGG [4867-31_410]”, the equilibrium dissociation constant (Kd) (as 4867-31_192, PS 3' of 2, 3' inverted dT) was 0.016 nM.
On to “CCGTTCAAGTGCTTGTAGGATTTAAATGG [4867-31_411]”, for which the dissociation constant (Kd) (as 4867-31_192 plus PS 3' of G3, 3'-idT, 29259-fold loss from PS at G3) is 320 nM.
“CCGTTCAAGTGCTTGTAGGATTTAAATGG [4867-31_412]”: where the note is “as 4867-31_192, PS 3' of 4, 3' inverted dT”, the Kd came out at 0.022 nM.
Regarding “CCGTTCAAGTGCTTGTAGGATTTAAATGG [4867-31_413]”, under “as 4867-31_192, PS 3' of 5, 3' inverted dT”, the equilibrium dissociation constant (Kd) was found to be 0.015 nM.
As for “CCGTTCAAGTGCTTGTAGGATTTAAATGG [4867-31_414]”, for the setting “as 4867-31_192, PS 3' of 7, 3' inverted dT”, the dissociation constant (Kd) worked out at 0.015 nM.
In turn, “CCGTTCAAGTGCTTGTAGGATTTAAATGG [4867-31_415]” had an equilibrium dissociation constant (Kd) (as 4867-31_192, PS 3' of 8, 3' inverted dT) of 0.011 nM.
Sequence “CCGTTCAAGTGCTTGTAGGATTTAAATGG [4867-31_416]” registered a Kd (as 4867-31_192, PS 3' of 10, 3' inverted dT) of 0.0093 nM.
Turning to “CCGTTCAAGTGCTTGTAGGATTTAAATGG [4867-31_417]”, the Kd (as 4867-31_192, PS 3' of 11, 3' inverted dT) came out at 0.0094 nM.
Turning to “CCGTTCAAGTGCTTGTAGGATTTAAATGG [4867-31_420]”, under “as 4867-31_192, PS 3' of 14, 3' inverted dT”, the equilibrium dissociation constant (Kd) turned out to be 0.018 nM.
The sequence “CCGTTCAAGTGCTTGTAGGATTTAAATGG [4867-31_421]” yielded a Kd (as 4867-31_192, PS 3' of 16, 3' inverted dT) of 0.015 nM.
As to “CCGTTCAAGTGCTTGTAGGATTTAAATGG [4867-31_422]”, the Kd (as 4867-31_192, PS 3' of 19, 3' inverted dT) is 0.0095 nM.
